According to patent US20240174754A1 (ABCURO, published 2024):

Tests used:
[1] = molecular target: T1, full length human KLRG1 expressed on CHOK1 cells (CHOK1-hKLRG1) (human, UniProt Q96E93 1-195); assay: FACS on CHOK1-hKLRG1 cells, anti-human IgG-Alexa 488 detection
T1 construct: whole, on cells; also called killer cell lectin-like receptor G1
T1 sequence (looked up): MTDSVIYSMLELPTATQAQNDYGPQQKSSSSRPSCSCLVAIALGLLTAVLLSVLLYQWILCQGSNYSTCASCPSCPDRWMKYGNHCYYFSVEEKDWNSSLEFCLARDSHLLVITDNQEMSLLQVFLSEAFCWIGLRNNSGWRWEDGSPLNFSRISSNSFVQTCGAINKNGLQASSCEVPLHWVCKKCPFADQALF
Procedure: Binding of anti-KLRG1 monoclonal antibodies to cell expressed human and cynomolgus-KLRG1 is carried out by FACS. Chinese hamster ovary (CHO) cells are stably transfected to express full length human KLRG1 (CHOK1-hKLRG1)). CHOK1-hKLRG1 expressing cells were cultured and incubated with varying concentrations of either PA015 or control human IgG1. Cells were then centrifuged, the supernatant discarded, and washed with an incubation buffer (HBSS+2% FBS+10 mM Ca2+). Cells were resuspended and incubated with anti-human IgG-Alexa 488, washed, resuspended, and underwent FACS study.

[2] = molecular target: T1, full length human KLRG1 expressed on …; assay: FACS competition on CHOK1-hKLRG1 cells; inhibition of E-cadherin-ECD-FC-biotin (0.3 uM) binding
Procedure: The ability of monoclonal antibodies to inhibit E-cadherin/KLRG1 binding is measured by FACS.
(§1) CHOK1-hKLRG1 expressing cells were cultured and incubated with varying concentrations of either PA015 or control human IgG1. Recombinant human E-cadherin-ECD-FC-biotin at 0.3 μM was then added and incubated. Cells were then centrifuged, the supernatant discarded, and washed with an incubation buffer (HBSS+2% FBS+10 mM Ca2+). Cells were resuspended and incubated with Streptavidin-Alexa 488, washed, resuspended, and underwent FACS study.

[3] = molecular target: T1, full length human KLRG1 expressed on …; assay: FACS competition on CHOK1-hKLRG1 cells; inhibition of E-cadherin-ECD-FC-biotin (0.3 uM) binding (Example 7)
Procedure: as §1, with “PA015, HG1N01, HG1N02” for “either PA015”, “were” for “were then”

EC50 [1]: 1.33 nM | IC50 [2]: 8.05 nM | IC50 [3]: 5.3 nM
B1: PA015 (antibody, human IgG1, kappa, V domains shown)
VH: QVTLRESGPALVKPTQTLTLTCTVSGFSLSTFGMGVGWIRQPPGKALEWLAHIWWDDDKWYELALKSRLTISKDTSKNQVVLTITNMDPVDTATYYCARVIYYGSRSAYYSMDYWGQGTTVTVSS
VL: DVVMTQTPLSLSVTPGQPASISCKSSQSIVHSNAHTYLEWYLQKPGQSPQLLIYKVSNRFSGVPDRFSGSGSGTDFTLKISRVEAEDVGVYYCFQGSHVPVTFGQGTKLEIKR
notes: also called PA015 antibody; anti-KLRG1 antibody PA015
